In article PMC11697773:

Target: human neonatal Fc receptor (FcRn) (human) (UniProt P55899)
Test: BLI; Octet; biotinylated human FcRn on streptavidin-coated biosensors, antibody soluble; equilibrium binding; PBSA pH 5.6; tips regenerated in PBSA pH 7.4

B1: F5111 antibody, wild type (hIgG1 lambda) (antibody, V domains shown)
VH: QLQLQESGPGLVKPSQTLSLTCTVSGGSISSGGYYWSWIRQHPGKGLEWIGYIYYSGSTYYNPSLKSRVTISVDTSKNQFSLKLSSVTAADTAVYYCARTPTVTGDWFDPWGRGTLVTVSS
VL: NFMLTQPHSVSESPGKTVTISCTRSSGSIASNYVQWYQQRPGSSPTTVIYEDNQRPSGVPDRFSGSIDSSSNSASLTISGLKTEDEADYYCQSYDSSNVVFGGGTKLTVL
Kd: 107 nM
